According to the RNAGym collection of RNA variant scans (doi:10.7554/elife.90254):

B1: OR4K15 (parent)
chain: GUUAACGGUCAUAGGCCAUGGAAACUAGGAGCACCAUUUCGCUGCCAGUGAAGAAAUGAACAAAGAAAAUCUGGGCCAGGCAGGCAUCAAAAGAAAUAGUCUUGCGCUCAACCAGAAAGUCUGUAAUCAUUUUAAGGGUA

Variants of: B1
Assay: self-cleavage, relative activity (ratio to wild type); higher = more cleavage; in vitro, sequencing; the parent is a self-cleaving ribozyme

Variant	self-cleavage
A92C U131C	1.35
A90U A140U	1.2
U87G A134G	0.44
A86C U127C	0.83
A86G A90G	1.13
A86G A111U	0.11
A86G A111G	0.02
A90G U122C	0.65
A90U A126U	0.98
A89G U100G	2.03
A89G U100A	0.5
A91G A98G	0.26
A86G A89G	1.42
A86G A89C	0.67
A86U U122C	1.74
A89U U102A	0.98
A89U A95G	2.26
A86G A134G	1.25
A91G U122A	0.96
A91G U122G	2.58
A89U U100C	2.55
A89C A134G	1.16
A86G U108C	0.02
A89G A96U	1.27

Variant	self-cleavage
A89G A96G	0.83
A91U A117U	1.15
A90U A125G	0.8
C85U A140G	1.26
A86G A98G	0.52
A89U U139A	1.49
A90G A135G	0.51
A89U A140G	1.61
A86U U127A	2.92
A86G C113U	0.03
A89U U97C	1.58
A90G A94G	1.64
A90G A94U	1.93
A89G U131A	0.3
A89U A98U	1.41
A86U U100C	2.52
U87A U100C	2.28
A89U U103A	1.09
A89U U103C	1.12
A89C G136A	1.27
A91C A114G	0.64
A86G U97A	0.97
A89G A94G	1.39
A89G A94U	0.86

Variant	self-cleavage
A86G U122C	0.88
A86G U122A	1.61
A86U U130C	1.44
A89U U108G	0
A89U U108C	0.02
A86G A116G	0.79
A86U U102A	1.36
A92G A95G	1.46
U87C U102G	0.27
U87C U102A	0.83
A90G G138U	1.3
C88U A94G	1.27
A89G U108C	0.02
A89G U108A	0.02
A89G U108G	0.01
A86G A140U	1.3
A86G A140G	0.77
A86U U87C	1.51
A89G U124C	0.93
U87A A118G	1.26
U87C U133G	1.67
A89C A126U	0.86
A91C A96G	1.39
A90G A117G	0.83

Variant	self-cleavage
A90G A117U	1.07
A86G A135U	2.39
A86G U124A	0.4
A89U A118G	1.61
A89U A118C	0.7
A91U U100A	0.57
A91U U100C	2.82
U87A A116G	0.28
A90U U120A	1.85
A90U U120C	1.63
A89U A135G	1.53
A91G A92U	1.43
A91G A92G	0.51
A91G A92C	0.76
U87A A126G	1.66
A89U U133C	1.97
U87C A94G	1.04
U87C A94U	1.37
A86G U102C	2.36
A86G U102G	0.39
A86G U87C	0.87
A86C A95G	1.34
A89G U139C	1.02
A89G U139A	1.67

Variant	self-cleavage
A91G U127A	2.67
A91G U127C	0.78
A91G U131C	1.07
A91U A118U	1.23
A91C A117G	2.03
A89G U97A	0.88
U87C U100C	2.72
U87C U100A	0.18
U87C A118U	0.9
U87C A118G	0.75
C88U A129G	1.65
U87G A140G	0.8
A91G U120C	0.53
A91G U120A	1.33
A86U A126G	1.63
A91G A111U	0.03
A90U A129U	1.29
A91G A116C	0.04
A91G A116G	0.55
C85G A96G	1.02
U87G A126C	0.12
U87A A129C	0.8
U87C U108G	0.02
A86U U120C	1.11

Variant	self-cleavage
A86G G137A	1.83
U87C U122C	1.07
A86U A89C	1.51
A86G G115A	0.14
A91G A129G	0.58
U87C G123A	1.78
U87C G123C	1.6
U87C A126U	1.18
U87C A126G	0.82
U87A A94G	1.64
A91U U103C	0.51
A89G A95G	1.87
A91G A118G	0.94
A91G A94U	1.02
A91G A94G	0.83
A90G U130C	0.87
U87A A117G	1.12
U87C U120C	0.21
U87C U120A	0.99
A90G U131C	0.31
A91C U132C	2.49
A91G G106A	0.01
U87C U132C	0.92
U87A U120C	1.28

Variant	self-cleavage
U87A U122C	1.28
U87A U122A	1.73
A90U U103A	0.34
A89C A96G	2.38
A90G A134G	1.35
A90G A134U	1.49
A91U A126U	1.56
A90G A96U	1.79
A90G A96G	1.25
U87C A117G	0.7
U87C A117C	0
U87C A96G	1.81
U87C A96U	1.48
A86U A129G	2.26
A86U A129U	1.13
U87A U133C	1.05
U87A U133G	1.25
A86G A96U	1.37
A86G A96G	0.71
A89U A116U	0.46
A89G U120C	0.65
A86G U120C	0.35
C85U A116U	0.17
